Assay results reported in patent publication US20040005688A1 (University of California, published 2004).

Target: T1, GST-fusion protein containing the PDZ domain of Dsh (Drosophila, UniProt P51140 250-338)
T1 construct: One of the smaller segments of the DM region made as GST fusions; not shown: glutathione S-transferase (GST) from a GST expression vector
T1 chain: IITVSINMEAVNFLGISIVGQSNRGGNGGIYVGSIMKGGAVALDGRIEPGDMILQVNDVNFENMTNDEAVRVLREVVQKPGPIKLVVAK
Assay: GST pull-down with segments of the DM region; in vitro kinase assay
Method: Lysates in buffer A with PIC were incubated with anti-Dsh or anti-DAK antibodies for 2-4 hours at 4° C. The immune complexes were collected by incubation with protein-A beads for 2 hours at 4° C., followed by centrifugation. The immunoprecipitates were then washed three times for 5-10 minutes each with Buffer A and subjected to SDS-PAGE or in vitro kinase assay. For precipitation by GST fusion proteins containing various regions of Dsh, lysates in buffer A with PIC were incubated for 2-4 hours at 4° C. with fusion proteins immobilized on glutathione agarose beads, followed by brief centrifugation. The glutathione beads were then washed three time for 5-10 minutes each with Buffer A and subjected to in vitro kinase assay, as described below.
The DAK activity was determined by a solid phase in vitro kinase assay after being brought down by immunoprecipitation (IP) or GST precipitation. The washed protein A or glutathione beads were then washed once with kinase buffer (50 mM Tris (pH 7.6), 10 mM MgCl₂) for 5 minutes at 4° C. The kinase reactions were carried out at room temperature for 30 minutes in a reaction volume of 20 μl containing 5:1 washed IP or GST beads, 1 μl [γ-³²P] ATP (10 μCi at 5000 Ci/mmol, Amersham) and 14 μl kinase buffer. […] The membranes were exposed to X-ray films or quantitated as indicated. […]

- binding result: no binding
B1: Dishevelled Associated Kinase (DAK), endogenous kinase activity from Drosophila embryo and Clone-8 cell lysates (enzyme)
chain: MSTAMRTTLQSVPEALPADSVSNGTASNVAAPAAPVSSATNAVPPLAAVSSTTATYATNSISTSSHSVKDQQQQQQQQQHDSANANIVSLPPTTTPVANTNTMMPIVTSSNSATSNSTAATPTPASGAAATGGVGSVSQGPATVSASAANTNHSHQHSHQHHHHVANNMTTDGARLSSNNSAVVASSAINHHHHHTPGSGVAPTVNKNVLSTHSAHPSAIKQRTSSAKGSPNMQMRSSAPMRWRATEEHIGKYKLIKTIGKGNFAKVKLAKHLPTGKEVAIKIIDKTQLNPGSLQKLFREVRIMKMLDHPNIVKLFQVIETEKTLYLIMEYASGGEVFDYLVLHGRMKEKEARVKFRQIVSAVQYCHQKRIIHRDLKAENLLLDSELNIKIADFGFSNEFTPGSKLDTFCGSPPYAAPELFQGKKYDGPEVDVWSLGVILYTLVSGSLPFDGSTLRELRERVLRGKYRIPFYMSTDCENLLRKFLVLNPAKRASLETIMGDKWMNMGFEEDELKPYIEPKADLADPKRIEALVAMGYNRSEIEASLSQVRYDDVFATYLLLGRKSTDPESDGSRSGSSLSLRNISGNDAGANAGSASVQSPTHRGVHRSISASSTKPSRRASSGAETLRVGPTNAAATVAAATGAVGAVNPSNNYNAAGSAADRASVGSNFKRQNTIDSATIKENTARLAAQNQRPASATQKMLTTADTTLNSPAKPRTATKYDPTNGNRTVSGTSGIIPRRSTTLYEKTSSTEKTNVIPAETKMASAVKSSRHFPRNVPSRSTFHSGQTRARNNTALEYSGTSGASGDSSHPGRMSFFSKLSSRFSKRPNQ
notes: Native activity from lysates, not a defined construct; also called Dishevelled associated kinase activity; Dsh associated kinase activity
